Where no end group is shown, it is not given here. [ ]: non-standard residue; d: D form.
What was measured:
Test in all cases: cell-based or functional assay
[1] = target: Nav1.2 (rBIIa) (rat (printed only as rBIIa)) (UniProt P04775)
[2] = target: Nav1.2 (rBIIa) (rat (printed only as rBIIa)), P04775
[3] = target: human Nav1.7 alpha-subunit (human), Q15858
[4] = target: human Nav1.7 alpha-subunit (human) (UniProt Q15858)
Chain of human Nav1.7 alpha-subunit (human) (Q15858 whole entry): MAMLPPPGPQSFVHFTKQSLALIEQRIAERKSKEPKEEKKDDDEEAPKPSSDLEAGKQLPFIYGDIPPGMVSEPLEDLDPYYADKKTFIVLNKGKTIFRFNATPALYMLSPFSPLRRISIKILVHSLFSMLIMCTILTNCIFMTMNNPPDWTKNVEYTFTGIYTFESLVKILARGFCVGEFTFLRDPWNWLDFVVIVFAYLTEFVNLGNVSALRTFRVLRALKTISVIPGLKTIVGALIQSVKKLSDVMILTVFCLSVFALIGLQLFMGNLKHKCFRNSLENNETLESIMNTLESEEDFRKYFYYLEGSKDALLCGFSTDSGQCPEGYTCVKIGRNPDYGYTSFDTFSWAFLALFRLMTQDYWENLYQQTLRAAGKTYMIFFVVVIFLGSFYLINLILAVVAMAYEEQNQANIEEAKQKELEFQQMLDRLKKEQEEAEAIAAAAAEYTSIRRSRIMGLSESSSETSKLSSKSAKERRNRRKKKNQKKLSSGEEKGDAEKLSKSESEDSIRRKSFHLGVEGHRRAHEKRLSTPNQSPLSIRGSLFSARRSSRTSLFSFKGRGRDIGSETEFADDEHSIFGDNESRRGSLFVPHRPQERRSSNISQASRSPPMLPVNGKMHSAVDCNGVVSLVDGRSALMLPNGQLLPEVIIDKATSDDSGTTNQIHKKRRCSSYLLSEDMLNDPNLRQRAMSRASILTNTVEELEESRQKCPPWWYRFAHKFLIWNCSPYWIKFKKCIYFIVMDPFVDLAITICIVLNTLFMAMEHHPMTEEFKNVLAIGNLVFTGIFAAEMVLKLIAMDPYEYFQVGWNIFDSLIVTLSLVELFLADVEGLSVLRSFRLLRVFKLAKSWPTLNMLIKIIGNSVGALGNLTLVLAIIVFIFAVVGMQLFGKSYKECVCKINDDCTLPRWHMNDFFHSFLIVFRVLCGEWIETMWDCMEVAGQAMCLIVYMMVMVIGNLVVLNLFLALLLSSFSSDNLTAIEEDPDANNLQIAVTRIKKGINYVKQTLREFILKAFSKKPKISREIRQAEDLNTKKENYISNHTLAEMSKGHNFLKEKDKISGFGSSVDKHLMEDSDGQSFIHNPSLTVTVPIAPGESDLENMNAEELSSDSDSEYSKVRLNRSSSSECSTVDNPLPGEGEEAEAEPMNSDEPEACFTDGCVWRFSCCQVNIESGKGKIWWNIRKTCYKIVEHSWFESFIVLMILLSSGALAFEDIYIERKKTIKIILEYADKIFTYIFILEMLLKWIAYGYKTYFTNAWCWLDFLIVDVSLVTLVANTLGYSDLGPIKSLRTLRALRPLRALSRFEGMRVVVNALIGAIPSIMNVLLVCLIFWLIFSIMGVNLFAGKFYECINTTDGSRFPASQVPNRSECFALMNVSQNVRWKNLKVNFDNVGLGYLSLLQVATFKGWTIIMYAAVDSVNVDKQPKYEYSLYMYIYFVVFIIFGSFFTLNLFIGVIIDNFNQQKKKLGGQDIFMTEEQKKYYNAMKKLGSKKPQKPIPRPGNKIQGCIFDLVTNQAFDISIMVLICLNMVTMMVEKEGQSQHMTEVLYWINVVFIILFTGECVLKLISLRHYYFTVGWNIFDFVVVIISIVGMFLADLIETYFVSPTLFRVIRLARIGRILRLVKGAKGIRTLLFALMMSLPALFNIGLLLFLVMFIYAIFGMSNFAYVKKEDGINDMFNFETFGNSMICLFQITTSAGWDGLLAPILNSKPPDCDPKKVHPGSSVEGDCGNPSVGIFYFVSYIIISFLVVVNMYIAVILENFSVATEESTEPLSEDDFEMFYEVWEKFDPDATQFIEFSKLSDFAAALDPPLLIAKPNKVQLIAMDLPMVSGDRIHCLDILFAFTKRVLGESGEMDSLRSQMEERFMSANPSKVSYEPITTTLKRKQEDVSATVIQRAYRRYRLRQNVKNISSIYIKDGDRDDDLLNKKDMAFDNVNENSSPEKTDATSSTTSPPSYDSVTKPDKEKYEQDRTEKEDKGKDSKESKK

Chain of Nav1.2 (rBIIa) (rat (printed only as rBIIa)) (P04775 whole entry): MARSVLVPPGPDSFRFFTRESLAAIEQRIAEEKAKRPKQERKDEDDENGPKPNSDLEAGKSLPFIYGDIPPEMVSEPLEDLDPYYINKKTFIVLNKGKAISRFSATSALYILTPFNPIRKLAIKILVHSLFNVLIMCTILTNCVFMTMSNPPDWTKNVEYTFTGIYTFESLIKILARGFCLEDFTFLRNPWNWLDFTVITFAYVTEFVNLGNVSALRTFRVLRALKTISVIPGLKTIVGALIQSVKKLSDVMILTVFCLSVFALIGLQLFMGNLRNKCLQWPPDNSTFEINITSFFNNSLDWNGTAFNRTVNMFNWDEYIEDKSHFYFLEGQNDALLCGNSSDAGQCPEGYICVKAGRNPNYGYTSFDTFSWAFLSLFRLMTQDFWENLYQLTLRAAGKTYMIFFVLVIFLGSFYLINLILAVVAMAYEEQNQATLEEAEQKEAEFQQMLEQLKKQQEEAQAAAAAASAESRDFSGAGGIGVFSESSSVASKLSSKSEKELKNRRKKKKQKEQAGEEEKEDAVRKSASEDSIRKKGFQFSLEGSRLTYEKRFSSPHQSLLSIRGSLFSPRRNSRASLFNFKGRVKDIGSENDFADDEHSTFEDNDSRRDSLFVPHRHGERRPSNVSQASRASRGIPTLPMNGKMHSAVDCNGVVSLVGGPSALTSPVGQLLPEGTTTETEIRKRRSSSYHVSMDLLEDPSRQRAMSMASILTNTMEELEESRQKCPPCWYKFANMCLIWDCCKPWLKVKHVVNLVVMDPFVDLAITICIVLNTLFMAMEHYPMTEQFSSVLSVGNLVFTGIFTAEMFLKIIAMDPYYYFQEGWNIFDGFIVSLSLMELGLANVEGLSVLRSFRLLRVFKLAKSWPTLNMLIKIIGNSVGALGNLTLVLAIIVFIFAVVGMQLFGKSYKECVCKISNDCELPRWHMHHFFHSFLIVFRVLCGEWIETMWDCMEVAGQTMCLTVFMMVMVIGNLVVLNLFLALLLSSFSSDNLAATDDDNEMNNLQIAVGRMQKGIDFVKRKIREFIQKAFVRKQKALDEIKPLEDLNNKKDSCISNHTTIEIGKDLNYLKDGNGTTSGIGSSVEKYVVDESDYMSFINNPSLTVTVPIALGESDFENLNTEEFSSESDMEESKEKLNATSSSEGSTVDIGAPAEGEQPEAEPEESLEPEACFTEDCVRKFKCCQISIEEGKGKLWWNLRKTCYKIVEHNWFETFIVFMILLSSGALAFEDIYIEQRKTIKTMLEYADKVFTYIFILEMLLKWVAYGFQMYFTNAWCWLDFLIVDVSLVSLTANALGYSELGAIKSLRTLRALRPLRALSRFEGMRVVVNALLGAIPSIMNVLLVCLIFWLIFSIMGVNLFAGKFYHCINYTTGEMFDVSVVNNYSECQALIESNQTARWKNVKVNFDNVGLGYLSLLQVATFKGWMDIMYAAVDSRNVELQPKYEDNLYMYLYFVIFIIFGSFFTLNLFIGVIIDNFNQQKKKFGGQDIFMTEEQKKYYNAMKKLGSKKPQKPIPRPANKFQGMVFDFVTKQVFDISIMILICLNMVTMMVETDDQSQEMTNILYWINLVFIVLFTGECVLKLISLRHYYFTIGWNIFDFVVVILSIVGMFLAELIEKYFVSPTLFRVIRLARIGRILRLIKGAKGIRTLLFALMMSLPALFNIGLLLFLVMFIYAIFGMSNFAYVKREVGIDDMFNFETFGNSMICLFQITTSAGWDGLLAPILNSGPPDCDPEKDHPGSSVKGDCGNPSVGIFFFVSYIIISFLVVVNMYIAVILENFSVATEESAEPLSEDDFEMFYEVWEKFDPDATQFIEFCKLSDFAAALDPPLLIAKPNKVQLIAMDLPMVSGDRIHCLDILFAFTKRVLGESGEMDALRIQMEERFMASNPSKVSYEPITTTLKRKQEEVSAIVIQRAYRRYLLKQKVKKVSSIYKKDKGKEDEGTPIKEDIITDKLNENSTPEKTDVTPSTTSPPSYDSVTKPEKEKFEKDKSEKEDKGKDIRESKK
Chain of Nav1.2 (rBIIa) (rat (printed only as rBIIa)), P04775 (P04775 whole entry): as above
Chain of human Nav1.7 alpha-subunit (human), Q15858 (Q15858 whole entry): as the sequence (Q15858 whole entry) above

| Molecule | Nav1.2 IC50 (nM), EP (electrophysiology) sodium channel blocking activity [1] | Nav1.2 IC50 (nM), FLIPR sodium channel blocking activity [1] | Nav1.2 IC50 (nM), FLIPR sodium channel blocking activity [2] | Nav1.7 IC50 (nM), FLIPR sodium channel blocking activity [3] | Nav1.7 IC50 (nM), FLIPR sodium channel blocking activity [4] |
| --- | --- | --- | --- | --- | --- |
| Protoxin II (peptide) | 100 nM | 379 nM | – | – | – |
| YCQKWMWTCDSERKCCEGMVCRLWCKKKL[dW]-NHcyclohexyl (ends and bridges not checked) [Protoxin II (D)-NHcyclohexyl] | – | – | 336 nM | 31 nM | – |
| YCQKWMWTCDSERKCCEGMVCRLWCKKKLWW (not fully specified; ends and bridges not checked) [Protoxin II-D-Trp] | – | 102 nM | – | – | 16.5 nM |
